# T1: 食蟹猴VISTA-Fc (cynomolgus monkey, UniProt A0A7N9IB00 33-194)
# T1 construct: Bought reagent; also called VISTA-Fc(食蟹猴，Sino biological Inc); not shown: Fc part
# T1 sequence: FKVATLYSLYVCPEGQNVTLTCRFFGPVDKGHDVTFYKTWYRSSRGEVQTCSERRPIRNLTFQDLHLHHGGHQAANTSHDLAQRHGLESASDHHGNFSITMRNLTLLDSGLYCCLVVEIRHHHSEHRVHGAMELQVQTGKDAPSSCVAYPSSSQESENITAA
# B1: 阳性参照抗体VSTB112 (antibody, V domains shown)
# VH: QVQLVQSGAEVKKPGSSVKVSCKASGGTFSSYAISWVRQAPGQGLEWMGGIIPIFGTANYAQKFQGRVTITADESTSTAYMELSSLRSEDTAVYYCARSSYGWSYEFDYWGQGTLVTVSS
# VL: DIQMTQSPSSLSASVGDRVTITCRASQSIDTRLNWYQQKPGKAPKLLIYSASSLQSGVPSRFSGSGSGTDFTLTISSLQPEDFATYYCQQSAYNPITFGQGTKVEIKR
# Target: T1, 食蟹猴VISTA-Fc
# Test: ELISA on coated VISTA-Fc, anti-human kappa-HRP detection
binder,measurement,value
B1,EC50,0.065 µg/mL

# Source: CN115141278A (BIO THERA SOLUTIONS LTD, dated 2022)
